Source: IntAct's records for PubMed 31515488

B1: Germ cell-less protein-like 1 (Homo sapiens), Q96IK5 (parent)
chain: MGSLSSRVLRQPRPALAQQAQGARAGGSARRPDTGDDAAGHGFCYCAGSHKRKRSSGSFCYCHPDSETDEDEEEGDEQQRLLNTPRRKKLKSTSKYIYQTLFLNGENSDIKICALGEEWSLHKIYLCQSGYFSSMFSGSWKESSMNIIELEIPDQNIDVEALQVAFGSLYRDDVLIKPSRVVAILAAACLLQLDGLIQQCGETMKETVNVKTVCGYYTSAGTYGLDSVKKKCLEWLLNNLMTHQNVELFKELSINVMKQLIGSSNLFVMQVEMDIYTALKKWMFLQLVPSWNGSLKQLLTETDVWFSKQRKDFEGMAFLETEQGKPFVSVFRHLRLQYIISDLASARIIEQDAVVPSEWLSSVYKQQWFAMLRAEQDSEVGPQEINKEELEGNSMRCGRKLAKDGEYCWRWTGFNFGFDLLVTYTNRYIIFKRNTLNQPCSGSVSLQPRRSIAFRLRLASFDSSGKLICSRTTGYQILTLEKDQEQVVMNLDSRLLIFPLYICCNFLYISPEKKN
partner: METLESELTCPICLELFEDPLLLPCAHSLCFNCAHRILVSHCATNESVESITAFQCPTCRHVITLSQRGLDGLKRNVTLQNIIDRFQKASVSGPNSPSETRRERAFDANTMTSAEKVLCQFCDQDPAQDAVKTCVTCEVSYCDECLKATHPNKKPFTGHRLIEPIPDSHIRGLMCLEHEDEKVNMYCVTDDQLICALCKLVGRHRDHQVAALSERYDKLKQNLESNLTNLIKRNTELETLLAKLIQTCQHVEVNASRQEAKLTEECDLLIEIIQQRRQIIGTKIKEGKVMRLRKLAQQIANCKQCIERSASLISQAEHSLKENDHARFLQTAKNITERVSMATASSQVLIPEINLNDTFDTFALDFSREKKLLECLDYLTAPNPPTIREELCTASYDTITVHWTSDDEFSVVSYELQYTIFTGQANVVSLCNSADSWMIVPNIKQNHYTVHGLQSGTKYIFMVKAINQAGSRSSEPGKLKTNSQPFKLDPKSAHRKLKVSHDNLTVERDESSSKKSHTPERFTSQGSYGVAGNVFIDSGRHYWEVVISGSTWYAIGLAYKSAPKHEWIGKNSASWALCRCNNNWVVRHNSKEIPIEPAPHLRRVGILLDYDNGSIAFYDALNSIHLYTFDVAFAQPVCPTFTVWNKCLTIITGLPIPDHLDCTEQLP

Variants of: B1
Conditions: with tri18_human MID1, O15344

Row | effect of a mutation on the interaction | Variant
1 | with no effect | MGSLSSRVLRQPRPALAQQAQGARAGGSARRPDTGDDAAGHGFCYCAGSHKRKRSSGSFCYCHPDSETDEDEEEGDEQQRLLNTPRRKKLKSTSKYIYQTLFLNGENSDIKICALGEEWSLHKIYLCQSGYFSSMFSGSWKESSMNIIELEIPDQNIDVEALQVAFGSLYRDDVLIKPSRVVAILAAACLLQLDGLIQQCGETMKETVNVKTVCGYYTSAGTYGLDSVKKKCLEWLLNNLMTHQNVELFKELSINVMKQLIGSSNLFVMQVEMDIYTALKKWMFLQLVPSWNGSLKQLLTETDVWFSKQRKDFEGMAFLETEQGKPFVSVFRHLRLQYIVSDLASARIIEQDAVVPSEWLSSVYKQQWFAMLRAEQDSEVGPQEINKEELEGNSMRCGRKLAKDGEYCWRWTGFNFGFDLLVTYTNRYIIFKRNTLNQPCSGSVSLQPRRSIAFRLRLASFDSSGKLICSRTTGYQILTLEKDQEQVVMNLDSRLLIFPLYICCNFLYISPEKKN [I340V]
2 | with no effect | MGSLSSRVLRQPRPALAQQAQGARAGGSARRPDTGDDAAGHGFCYCAGSHKRKRSSGSFCYCHPDSETDEDEEEGDEQQRLLNTPRRKKLKSTSKYIYQTLFLNGENSDIKICALGEEWSLHRIYLCQSGYFSSMFSGSWKESSMNIIELEIPDQNIDVEALQVAFGSLYRDDVLIKPSRVVAILAAACLLQLDGLIQQCGETMKETVNVKTVCGYYTSAGTYGLDSVKKKCLEWLLNNLMTHQNVELFKELSINVMKQLIGSSNLFVMQVEMDIYTALKKWMFLQLVPSWNGSLKQLLTETDVWFSKQRKDFEGMAFLETEQGKPFVSVFRHLRLQYIISDLASARIIEQDAVVPSEWLSSVYKQQWFAMLRAEQDSEVGPQEINKEELEGNSMRCGRKLAKDGEYCWRWTGFNFGFDLLVTYTNRYIIFKRNTLNQPCSGSVSLQPRRSIAFRLRLASFDSSGKLICSRTTGYQILTLEKDQEQVVMNLDSRLLIFPLYICCNFLYISPEKKN [K123R]
3 | with no effect | MGSLSSRVLRQPRPALAQQAQGARAGGSARRPDTGDDAAGHGFCYCAGSHKRKRSSGSFCYCHPDSETDEDEEEGDKQQRLLNTPRRKKLKSTSKYIYQTLFLNGENSDIKICALGEEWSLHKIYLCQSGYFSSMFSGSWKESSMNIIELEIPDQNIDVEALQVAFGSLYRDDVLIKPSRVVAILAAACLLQLDGLIQQCGETMKETVNVKTVCGYYTSAGTYGLDSVKKKCLEWLLNNLMTHQNVELFKELSINVMKQLIGSSNLFVMQVEMDIYTALKKWMFLQLVPSWNGSLKQLLTETDVWFSKQRKDFEGMAFLETEQGKPFVSVFRHLRLQYIISDLASARIIEQDAVVPSEWLSSVYKQQWFAMLRAEQDSEVGPQEINKEELEGNSMRCGRKLAKDGEYCWRWTGFNFGFDLLVTYTNRYIIFKRNTLNQPCSGSVSLQPRRSIAFRLRLASFDSSGKLICSRTTGYQILTLEKDQEQVVMNLDSRLLIFPLYICCNFLYISPEKKN [E77K]
4 | with no effect | MGSLSSRVLRQPRPALAQQAQGARAGGSARRPDTGDDAAGHGFCYCAGSHKRKRSSGSFCSCHPDSETDEDEEEGDEQQRLLNTPRRKKLKSTSKYIYQTLFLNGENSDIKICALGEEWSLHKIYLCQSGYFSSMFSGSWKESSMNIIELEIPDQNIDVEALQVAFGSLYRDDVLIKPSRVVAILAAACLLQLDGLIQQCGETMKETVNVKTVCGYYTSAGTYGLDSVKKKCLEWLLNNLMTHQNVELFKELSINVMKQLIGSSNLFVMQVEMDIYTALKKWMFLQLVPSWNGSLKQLLTETDVWFSKQRKDFEGMAFLETEQGKPFVSVFRHLRLQYIISDLASARIIEQDAVVPSEWLSSVYKQQWFAMLRAEQDSEVGPQEINKEELEGNSMRCGRKLAKDGEYCWRWTGFNFGFDLLVTYTNRYIIFKRNTLNQPCSGSVSLQPRRSIAFRLRLASFDSSGKLICSRTTGYQILTLEKDQEQVVMNLDSRLLIFPLYICCNFLYISPEKKN [Y61S]
5 | with no effect | MGSLSSRVLRQPRPALAQQAQGARAGGSARRPDTGDDAAGHGFCYCAGSHKRKRSSGSFCYCHPDSETDEDEEEGDEQQRLLNTPRRKKLKSTSKYIYQTLFLNGENSDIKICALGEEWSLHKIYLCQSGYFSSMFSGSWKESSMNIIELEIPDQNIDVEALQVAFGSLYRDDVLIKPSRVVAILAAACLLQLDGLIQQCGETMKETVNVKTVCGYYTSAGTYGLDSVKKKCLEWLLNNLMTHQNVELFKELSINVMKQLIGSSNLFVMQVEMDIYTALKKWMFLQLVPSWNGSLKQLLTETDVWFSKQRKDFEGMAFLETEQGKPFVSVFRHLRLQYIISDLASARIIEQDAVVPSEWLSSVYKQQWFAMLRAEQDSEVGPQEINKEELEGNSMRCGRKLAKDGEYCWRWTGFNFGFDLLVTYTNRYIIFKRNTLNQPCSGSVSLQPQRSIAFRLRLASFDSSGKLICSRTTGYQILTLEKDQEQVVMNLDSRLLIFPLYICCNFLYISPEKKN [R449Q]
